Laboratory results: patent US20220378893A1 (INDUSTRY UNIVERSITY COOPERATION FOUNDATION HANYANG …, published 2022)

B2: neutrophil cytosol factor 1 (p47phox), endogenous in THP-1 cells (other)
chain: MGDTFIRHIALLGFEKRFVPSQHYVYMFLVKWQDLSEKVVYRRFTEIYEFHKTLKEMFPIEAGAINPENRIIPHLPAPKWFDGQRAAENRQGTLTEYCSTLMSLPTKISRCPHLLDFFKVRPDDLKLPTDNQTKKPETYLMPKDGKSTATDITGPIILQTYRAIANYEKTSGSEMALSTGDVVEVVEKSESGWWFCQMKAKRGWIPASFLEPLDSPDETEDPEPNYAGEPYVAIKAYTAVEGDEVSLLEGEAVEVIHKLLDGWWVIRKDDVTGYFPSMYLQKSGQDVSQAQRQIKRGAPPRRSSIRNAHSIHQRSRKRLSQDAYRRNSVRFLQQRRRQARPGPQSPGSPLEEERQTQRSKPQPAVPPRPSADLILNRCSESTKRKLASAV
notes: Human by the cell line; also called p47phox, 45K

Assays:
[1] = molecular target: unlabeled TBK1 (in vitro titration); test: fluorescence titration of BODIPY FL-labeled MPT64 with unlabeled TBK1, curve fitting, 25 C
Sequence of unlabeled TBK1 (in vitro titration) (Q9UHD2 whole entry): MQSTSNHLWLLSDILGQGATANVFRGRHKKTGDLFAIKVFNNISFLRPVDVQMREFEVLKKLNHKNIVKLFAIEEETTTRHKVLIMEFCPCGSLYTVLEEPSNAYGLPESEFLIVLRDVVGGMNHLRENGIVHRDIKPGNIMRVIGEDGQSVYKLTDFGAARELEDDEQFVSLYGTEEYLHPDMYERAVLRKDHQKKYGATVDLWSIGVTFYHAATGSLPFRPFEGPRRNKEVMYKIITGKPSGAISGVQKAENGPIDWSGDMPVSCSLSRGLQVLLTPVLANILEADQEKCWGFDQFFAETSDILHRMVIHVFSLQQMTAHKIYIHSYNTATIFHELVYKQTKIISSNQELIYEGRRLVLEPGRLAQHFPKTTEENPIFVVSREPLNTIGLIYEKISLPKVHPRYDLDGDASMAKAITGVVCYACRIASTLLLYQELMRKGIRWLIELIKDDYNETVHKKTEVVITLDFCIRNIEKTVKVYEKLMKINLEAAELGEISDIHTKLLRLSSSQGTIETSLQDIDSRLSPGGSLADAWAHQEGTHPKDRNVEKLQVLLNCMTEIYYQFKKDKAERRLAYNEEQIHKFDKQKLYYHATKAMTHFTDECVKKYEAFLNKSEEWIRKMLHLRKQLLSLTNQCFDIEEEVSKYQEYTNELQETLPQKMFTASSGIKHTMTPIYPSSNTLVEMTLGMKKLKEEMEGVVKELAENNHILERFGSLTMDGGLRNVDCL

[2] = molecular target: unlabeled HK2 (in vitro titration); test: fluorescence titration of BODIPY FL-labeled MPT64 with unlabeled HK2, curve fitting, 25 C
[3] = molecular target: unlabeled TBK1 (in vitro titration); test: fluorescence titration of BODIPY FL-labeled MPT63 with unlabeled TBK1, curve fitting, 25 C
[4] = molecular target: unlabeled p47phox (in vitro titration); test: fluorescence titration of BODIPY FL-labeled MPT63 with unlabeled p47phox, curve fitting, 25 C
[5] = molecular target: B2; test: co-IP in THP-1 cells treated with p47 peptide
[6] = molecular target: T1, p67phox, endogenous in THP-1 cells (human, UniProt P19878 1-526); test: co-IP in THP-1 cells treated with p47 peptide
T1 sequence: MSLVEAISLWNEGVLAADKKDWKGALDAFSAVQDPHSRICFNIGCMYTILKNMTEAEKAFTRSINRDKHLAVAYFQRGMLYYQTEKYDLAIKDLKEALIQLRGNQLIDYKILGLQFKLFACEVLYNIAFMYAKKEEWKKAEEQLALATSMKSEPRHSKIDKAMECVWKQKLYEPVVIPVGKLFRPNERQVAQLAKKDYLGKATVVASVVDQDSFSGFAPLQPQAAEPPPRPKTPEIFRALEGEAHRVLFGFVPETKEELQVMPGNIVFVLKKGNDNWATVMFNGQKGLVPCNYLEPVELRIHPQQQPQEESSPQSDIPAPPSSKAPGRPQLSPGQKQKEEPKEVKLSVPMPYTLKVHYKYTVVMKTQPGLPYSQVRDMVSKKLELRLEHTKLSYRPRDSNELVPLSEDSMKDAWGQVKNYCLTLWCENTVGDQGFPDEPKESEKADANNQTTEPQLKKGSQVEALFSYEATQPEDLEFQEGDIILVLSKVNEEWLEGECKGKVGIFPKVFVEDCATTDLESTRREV

“recombinant MPT64 (rMPT64) (from UniProt P9WIN9 24-228)” showed a Kd [1] of 193 nM and a Kd [2] of 134 nM.

“recombinant MPT63 (rMPT63) (from UniProt P9WIP1 30-159)” showed a Kd [3] of 178 nM and a Kd [4] of 345 nM.

B1: p22phox, endogenous in THP-1 cells (other)
chain: GQIEWAMWANEQALASGLILITGGIVATAGRFTQWYFGAYSIVAGVFVCLLEYPRGKRKKGSTMERWGQKYMTAVVKLFGPFTRNYYVRAVLHLLLSVPAGFLLATILGTACLAIASGIYLLAAVRGEQWTPIEPKPRERPQIGGTIKQPPSNPPPRPPAEARKKPSEEEAAVAAGGPPGGPQVNPIPVTDEVV
B1: binds [5].

B2: binds [6].
